Test results taken from patent US20210095032A1 (SALUBRIS CHENGDU BIOTECH, published 2021).

Biological target: T1, biotin-labeled human PD-1 Fc protein (human, biotin-labeled (site not stated))
T1 construct: also called PD-1-Fc-biotin
Assay: capture ELISA

T1 sequence (chain, as listed by the source limits assumed): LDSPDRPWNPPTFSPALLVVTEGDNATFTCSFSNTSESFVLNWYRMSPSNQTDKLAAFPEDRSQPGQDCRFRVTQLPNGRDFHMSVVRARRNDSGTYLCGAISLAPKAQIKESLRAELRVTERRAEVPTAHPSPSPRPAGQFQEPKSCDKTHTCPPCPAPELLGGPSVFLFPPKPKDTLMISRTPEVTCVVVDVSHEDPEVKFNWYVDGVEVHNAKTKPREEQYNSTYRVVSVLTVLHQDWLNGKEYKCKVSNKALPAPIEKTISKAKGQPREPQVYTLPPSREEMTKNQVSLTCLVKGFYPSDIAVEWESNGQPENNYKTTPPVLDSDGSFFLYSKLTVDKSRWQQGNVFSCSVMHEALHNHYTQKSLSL

B1: huD2H3-V13 (antibody, human IgG1, kappa, V domains shown)
VH: EVQLVQSGAEVKKPGSSVKVSCKSSGYTFTNYWMHWVRQAPGQGLEWIGAIFPRNSETNYNQKFKARATLTADTSTSTAYMELSSLRSEDTAVYFCTRNRYGLDYWGQGTLVTVSS
VL: DIVMTQSPDSLAVSLGERATINCRASESVSLHGTRLMHWYQQKPGQPPKLLIYLGSNLESGVPDRFSGSGSGTDFTLTISSLQAEDVAVYYCQQSIEDPWTFGQGTKLEIKR
notes: Humanized D2H3, human IgG1/kappa; No EC50 is printed for this variant; it appears only in the sentences about the group
B1: binds.
